Consider seven molecules from PMC10397247.

One experiment deals with T1, 4H968-bA.
T1 chain: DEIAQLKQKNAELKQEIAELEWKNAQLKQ
Description: two-hybrid library CCNG1.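 Further: natural log of median RNA to DNA barcode read ratio; higher means stronger binding.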

The target in another experiment is T2, O4-bA.
T2 chain: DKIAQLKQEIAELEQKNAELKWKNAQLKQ
Description: two-hybrid library CCNG1.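 Further: natural log of median RNA to DNA barcode read ratio; higher means stronger binding.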

For another experiment, the target named is T3, 4H346-bA.
T3 chain: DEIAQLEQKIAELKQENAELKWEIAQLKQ
Description: two-hybrid library CCNG1.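 Further: natural log of median RNA to DNA barcode read ratio; higher means stronger binding.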

For another experiment, the target named is T4, 4H754-bA.
T4 chain: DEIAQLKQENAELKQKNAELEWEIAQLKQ
The experiment can be described thus: two-hybrid library CCNG1.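 Further: natural log of median RNA to DNA barcode read ratio; higher means stronger binding.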

The target in the next experiment is T5, 4H797-bA.
T5 chain: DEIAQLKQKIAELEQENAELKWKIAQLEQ
The experiment can be described thus: two-hybrid library CCNG1.

A further experiment addresses T6, 4H855-bA.
T6 chain: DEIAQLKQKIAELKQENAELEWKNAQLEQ
Description: two-hybrid library CCNG1.

A further experiment concerns the target T7, 4H3926-bA.
T7 chain: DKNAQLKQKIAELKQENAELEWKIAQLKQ
The experiment can be described thus: two-hybrid library CCNG1.

The next experiment deals with T8, 4H2702-bA.
T8 chain: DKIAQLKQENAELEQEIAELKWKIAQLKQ
Description: two-hybrid library CCNG1.

A further experiment deals with T9, 4H457-bA.
T9 chain: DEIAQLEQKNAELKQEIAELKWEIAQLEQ
The experiment can be described thus: two-hybrid library CCNG1.

The next experiment deals with T10, 4H575-bA.
T10 chain: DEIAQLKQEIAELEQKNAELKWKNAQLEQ
Description: two-hybrid library CCNG1.

A further experiment has as its target T11, O15-bA.
T11 chain: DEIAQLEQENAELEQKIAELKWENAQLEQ
The experiment can be described thus: two-hybrid library CCNG1.

The target of the next experiment is T12, 4H4073-bA.
T12 chain: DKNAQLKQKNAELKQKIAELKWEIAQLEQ
The experiment can be described thus: two-hybrid library CCNG1.

In another experiment the target is T13, 4H3427-bA.
T13 chain: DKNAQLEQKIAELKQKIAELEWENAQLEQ
The experiment can be described thus: two-hybrid library CCNG1.

For another experiment, the target named is T14, 4H953-bA.
T14 chain: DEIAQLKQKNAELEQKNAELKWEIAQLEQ
Description: two-hybrid library CCNG1.

A further experiment deals with T15, 4H3010-bA.
T15 chain: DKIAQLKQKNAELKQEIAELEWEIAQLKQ
Description: two-hybrid library CCNG1.

In another experiment the target is T16, 4H3112-bA.
T16 chain: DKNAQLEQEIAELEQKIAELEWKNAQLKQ
Description: two-hybrid library CCNG1.

The target in another experiment is T17, 4H683-bA.
T17 chain: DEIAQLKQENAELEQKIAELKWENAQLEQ
The experiment can be described thus: two-hybrid library CCNG1.

The target in the next experiment is T18, 4H918-bA.
T18 chain: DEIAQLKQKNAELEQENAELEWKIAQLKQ
The experiment can be described thus: two-hybrid library CCNG1.

For the next experiment, the target named is T19, 4H780-bA.
T19 chain: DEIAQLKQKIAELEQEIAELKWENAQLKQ
Description: two-hybrid library CCNG1.

Another experiment concerns the target T20, O3-bA.
T20 chain: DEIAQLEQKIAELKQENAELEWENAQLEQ
Description: two-hybrid library CCNG1.

For the next experiment, the target named is T21, O7-bA.
T21 chain: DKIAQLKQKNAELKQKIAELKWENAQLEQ
Description: two-hybrid library CCNG1.

In a further experiment the target is T22, O16-bA.
T22 chain: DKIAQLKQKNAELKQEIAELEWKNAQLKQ
Description: two-hybrid library CCNG1.

Another experiment concerns the target T23, O8-bA.
T23 chain: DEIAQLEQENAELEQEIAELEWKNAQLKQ
The experiment can be described thus: two-hybrid library CCNG1.

The next experiment concerns the target T24, O9-bA.
T24 chain: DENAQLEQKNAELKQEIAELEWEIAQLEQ
Description: two-hybrid library CCNG1.

In a further experiment the target is T25, O5-bA.
T25 chain: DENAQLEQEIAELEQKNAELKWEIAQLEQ
The experiment can be described thus: two-hybrid library CCNG1.

Another experiment has as its target T26, O2-bA.
T26 chain: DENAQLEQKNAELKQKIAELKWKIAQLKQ
The experiment can be described thus: two-hybrid library CCNG1.

The target of a further experiment is T27, O6-bA.
T27 chain: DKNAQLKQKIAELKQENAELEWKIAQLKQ
The experiment can be described thus: two-hybrid library CCNG1.

The next experiment has as its target T28, 4H967-bA.
T28 chain: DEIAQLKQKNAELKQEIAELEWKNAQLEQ
Description: two-hybrid library CCNG1.

The next experiment has as its target T29, 4H3625-AA.
T29 chain: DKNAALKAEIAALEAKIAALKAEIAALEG
Description: two-hybrid library CCmax. Particulars: mean of both orientations.

The target in a further experiment is T30, 4H87-AA.
T30 chain: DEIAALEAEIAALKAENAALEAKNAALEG
Description: two-hybrid library CCmax. Particulars: mean of both orientations.

The next experiment deals with T31, 4H3134-AA.
T31 chain: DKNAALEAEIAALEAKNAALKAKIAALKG
The experiment can be described thus: two-hybrid library CCmax. Particulars: mean of both orientations.

In another experiment the target is T32, 4H816-AA.
T32 chain: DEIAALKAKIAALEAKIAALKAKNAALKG
The experiment can be described thus: two-hybrid library CCmax. Particulars: mean of both orientations.

The target of the next experiment is T33, 4H3940-AA.
T33 chain: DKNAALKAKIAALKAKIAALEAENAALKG
The experiment can be described thus: two-hybrid library CCmax. Particulars: mean of both orientations.

In another experiment the target is T34, 4H2705-AA.
T34 chain: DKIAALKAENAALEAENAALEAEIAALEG
The experiment can be described thus: two-hybrid library CCmax.

Another experiment deals with T35, 4H2646-AA.
T35 chain: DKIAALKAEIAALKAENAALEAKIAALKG
Description: two-hybrid library CCmax. Particulars: mean of both orientations.

Another experiment concerns the target T36, 4H3409-AA.
T36 chain: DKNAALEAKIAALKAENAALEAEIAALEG
Description: two-hybrid library CCmax. Particulars: mean of both orientations.

Another experiment has as its target T37, 4H390-AA.
T37 chain: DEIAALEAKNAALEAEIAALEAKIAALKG
Description: two-hybrid library CCmax. Particulars: mean of both orientations.

Another experiment deals with T38, 4H775-AA.
T38 chain: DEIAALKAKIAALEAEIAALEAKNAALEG
Description: two-hybrid library CCmax. Particulars: mean of both orientations.

A further experiment deals with T39, 4H2758-AA.
T39 chain: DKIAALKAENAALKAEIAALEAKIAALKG
The experiment can be described thus: two-hybrid library CCmax.

The target of the next experiment is T40, 4H510-AA.
T40 chain: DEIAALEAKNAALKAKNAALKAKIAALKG
Description: two-hybrid library CCmax. Particulars: mean of both orientations.

In a further experiment the target is T41, 4H278-AA.
T41 chain: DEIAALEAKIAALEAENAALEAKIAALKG
The experiment can be described thus: two-hybrid library CCmax. Particulars: mean of both orientations.

A further experiment deals with T42, 4H2687-AA.
T42 chain: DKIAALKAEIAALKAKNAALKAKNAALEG
Description: two-hybrid library CCmax. Particulars: mean of both orientations.

In the next experiment the target is T43, 4H2512-AA.
T43 chain: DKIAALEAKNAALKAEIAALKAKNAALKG
Description: two-hybrid library CCmax.

The target in a further experiment is T44, 4H2985-AA.
T44 chain: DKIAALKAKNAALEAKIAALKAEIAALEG
Description: two-hybrid library CCmax. Particulars: mean of both orientations.

Another experiment deals with T45, 4H2873-AA.
T45 chain: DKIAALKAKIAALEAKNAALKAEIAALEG
The experiment can be described thus: two-hybrid library CCmax. Particulars: mean of both orientations.

Another experiment concerns the target T46, O9.
T46 chain: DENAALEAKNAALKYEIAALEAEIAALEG
The experiment can be described thus: two-hybrid library CCNG1.

For the next experiment, the target named is T47, O5.
T47 chain: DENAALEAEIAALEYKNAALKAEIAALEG
The experiment can be described thus: two-hybrid library CCNG1.

In a further experiment the target is T48, O7.
T48 chain: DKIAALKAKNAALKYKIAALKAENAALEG
Description: two-hybrid library CCNG1.

Another experiment has as its target T49, O6.
T49 chain: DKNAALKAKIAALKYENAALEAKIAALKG
Description: two-hybrid library CCNG1.

Another experiment concerns the target T50, O4.
T50 chain: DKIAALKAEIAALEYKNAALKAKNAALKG
Description: two-hybrid library CCNG1.

A further experiment concerns the target T51, O2.
T51 chain: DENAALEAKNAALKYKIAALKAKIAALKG
Description: two-hybrid library CCNG1.

The target in the next experiment is T52, O8.
T52 chain: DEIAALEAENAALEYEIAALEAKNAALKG
Description: two-hybrid library CCNG1.

Another experiment deals with T53, O3.
T53 chain: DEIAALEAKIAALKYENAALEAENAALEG
Description: two-hybrid library CCNG1.

Take DKIAQLKQENAELEQEIAELKWKIAQLKQ [4H2702-bA]: the interaction score was 2.68 with 4H968-bA; -0.822 in the experiment with O4-bA; 0.224 in the experiment with 4H346-bA; -1.37 with 4H754-bA; -1.02 with 4H797-bA; -1.38 with 4H855-bA. In addition, the interaction score was 1.22 with 4H3926-bA; 1.87 in the experiment with 4H2702-bA; 1.03 with 4H457-bA; -1.27 with 4H575-bA; 0.113 in the experiment with O15-bA; 2.39 with 4H4073-bA. Also, the interaction score in the experiment with 4H3427-bA was 0.956; with 4H953-bA it was 1.82; with 4H3010-bA, 2.07; with 4H3112-bA it was 0.438; with 4H683-bA it was -1.86; with 4H918-bA it was -0.134. In addition, the interaction score in the experiment with 4H780-bA was -1.04.

Take DENAQLEQEIAELEQENAELEWKIAQLKQ [O14-bA]: the interaction score was -0.146 with O4-bA; -0.879 with O3-bA; 2.14 in the experiment with O7-bA; 2.36 with O16-bA; -0.111 with O8-bA; -0.575 with O9-bA. Moreover, the interaction score with O5-bA was 1.69; with O15-bA it was -0.126; in the experiment with O2-bA it was 0.492; with O6-bA, 2.5.

Consider DEIAQLEQENAELEQKIAELKWENAQLEQ [O15-bA], for which the interaction score with O4-bA was -0.5; in the experiment with O3-bA, -1.21; with O7-bA, 1.63; in the experiment with O16-bA it was 2.52; in the experiment with O8-bA it was -0.714; with O9-bA, -0.0414. In addition, the interaction score with O5-bA was -0.66; in the experiment with O15-bA, -1.57; with O2-bA it was -0.458; in the experiment with O6-bA, -0.551.

In the case of DEIAQLKQKNAELKQEIAELEWKNAQLEQ [4H967-bA], the interaction score is -0.153 with 4H967-bA and 1.66 in the experiment with O15-bA.

As for DKIAALEAKNAALKAEIAALKAKNAALKG [4H2512-AA], the interaction score was -1.5 in the experiment with 4H3625-AA; -0.485 with 4H87-AA; -0.978 with 4H3134-AA; -1.79 in the experiment with 4H816-AA; -1.72 with 4H3940-AA; -0.766 in the experiment with 4H2705-AA. The interaction score with 4H2646-AA was -1.05; in the experiment with 4H3409-AA it was 1.21; with 4H390-AA, 0.0427; with 4H775-AA, -1.11; with 4H2758-AA, -0.837; in the experiment with 4H510-AA it was -1.85. The interaction score with 4H278-AA is 2.22; with 4H2687-AA, -1.95; with 4H2512-AA it was 0.206; in the experiment with 4H2985-AA, 0.303; with 4H2873-AA, -1.36.

As for DKNAQLKQKIAELKQKNAELKWEIAQLEQ [O13-bA], the interaction score with O4-bA is -1.31; with O3-bA it was -1.05; in the experiment with O7-bA, -1.07; with O16-bA, -1.53; with O8-bA it was 0.83; in the experiment with O9-bA it was -0.882. The interaction score is 0.182 with O5-bA, 0.435 with O15-bA, -1.17 with O2-bA and 1.39 with O6-bA.

For DENAALEAKNAALKYKIAALKAKIAALKG [O2], the interaction score with O9 is 0.313; with O5, -1.97; with O7, -2.4; with O6, -2.66; with O4, -1.83; with O2, -2.16. Moreover, the interaction score is -0.949 with O8 and -1.84 with O3.
